Source: the RNAGym collection of RNA variant scans (doi:10.1073/pnas.2313332121)

B1: TPR t1 (parent)
chain: GACCAAUCUGCCCUCAGAGCUCGAGAACAUCUUCGGAUGCAGAGGAGGCAGGCUUCGGUGGCGCGAUAGCGCCAACGUCCUCAACCUCCAAUGCAUCCCACCACAUGAUGAUGCCUGAAGAGCCUUGGUUUUUUG

Variants of: B1
Test: polymerase ribozyme fitness, log enrichment relative to wild type (log ratio); higher = more active; in vitro selection for triplet polymerase activity
Summary of the method: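 Each subunit of a heterodimeric triplet polymerase ribozyme was represented by a PCR-built, transcribed mutant library that underwent triplicate single-round in vitro selection with frozen incubation at −7 °C. Extended constructs were recovered by gel excision, streptavidin-bead capture and RT-PCR, and Illumina sequencing of input and output libraries kept genotypes with ≥10 input reads and ≥1 read per output. Fitness is the logarithm of genotype enrichment relative to wild-type enrichment, from inverse-variance-weighted replicate averages, with a logarithm base of 2.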

| Variant | polymerase ribozyme fitness (log ratio) |
| --- | --- |
| GACCAAUCUGCCCGCAGAGCUCGAGAACAUCUUCGGAUGCAGAGGAGGCAGGCUUCGGUGGCGCGAUAGCGCUAACGUCCUCAACCUCCAAUGCAUCCCACCACAUGAUGAUGCCUGAAGAGCCUUGGUUUUUUG [U14G C73U] | -1.04 |
| GACCAAUCUGCCCGCAGAGCUCGAGAACAUCUUCGGAUGCAGAGGAGGCAGGCUUCGGUGGCGCGAUAGCACCAACGUCCUCAACCUCCAAUGCAUCCCACCACAUGAUGAUGCCUGAACAGCCUUGGUUUUUUG [U14G G71A G120C] | -0.108 |
| GACCAAUCUGCCCGCAGAGCUCGAGAACAUCUUAGGAUGCAGAGGAGGCAGGCUUCGGUGGCGCGAUAGCGCCAACGUCCUCAACCUCCAAUGCAUCCCACCACAUGAUGAUGCCUAAAGAGCCUUGGUUUUUUG [U14G C34A G117A] | -4.56 |
| GACCAAUCUGCCCGCAGAGCUCGAGAACAUCUUCGGAUGCAGAGGAGGCAGGCUUUGGUGGCGCGAUAGAGCCAACGUCCUCAACCUCCAAUGCAUCCCACCACAUGAUGAUGCCUGAAGAGCCUUGGUUUUUUG [U14G C56U C70A] | -5.19 |
| GACCAAUCUGCCCGCAGAGCUCGAGAACAUCUUCGGAUGCAGAGGAGGCAGGCUUCGGUGGCGCGAUAGCGCUAACGUCCUCAACCUCCGAUGCAUCCCACCACAUGAUGAUGCCUGAAGAGCCUUGGUUUUUUG [U14G C73U A90G] | 1.59 |
| GACCAAUCUGCCCGCAGAGCUCGAGAACAUCUUCGGAUGCAGAGGAUGCAGGCUUCGGUGGCGCGAUAGCGCCAACGUCCUCAACCUCCAAUGCAUCCCAGCACAUGAUGAUGCCUGAAUAGCCUUGGUUUUUUG [U14G G47U C101G G120U] | -4.67 |
| GACCAAUCUGCCCGCAGAGCUCGAGAACAUCUUCGGAUGCAGAGGAGGCAGGCUUCGGUAGCGCGAUAGCGCCAACGUCCUCAACCUCCAAUGCAUCCCACCACAUGAUGAUGCCUUAAGAGCCUUGGUUUUUUG [U14G G60A G117U] | -5.67 |
| GACCAAUCUGCCCGCAGAGCUCGAGAACAUCUUCGGAUGCAGAGGAGACAGGCUUCGGUGGCGUGAUAGCGCCAACGUCCUCAACCUCCAAUGCAUCCCACCACAUGAUGAUGCCAGAAGAGGCUUGGUUCUUUG [U14G G48A C64U U116A C123G U131C] | -1.29 |
| GACCAAUCUGCCCGCAGAGCUCGAGAACAUCUUCGGAUGGAGAGGAGGCAGGCUUCGGUGGCGCGAUAGCGCCAACGUCCUCAACUUCCGAUGCAUCCCACCACAAGAUGAUGCCUGAAGAGCCUUGGUUUUUUG [U14G C40G C86U A90G U106A] | -3.96 |
| GACCAAUCUGCCCGCAGAGCUCGAGAACAUCUUCGGAUGCAUAGCAGGCAGGCUUCGGUGGCGUGAUAGCGCCAACGUCCUCAACCUCCAAUGCAUCCCAUCACAUGAUGAUGCCUGAAGAGACUUGGUUUUUUU [U14G G42U G45C C64U C101U C123A G135U] | -4.44 |
| GACCAAUCUGCCCGCAGAGCUCGAGAACAUCUUCGCAUGCAGAGGAGGCAGGCUUCGGUGGCGCGAUAGCGCCAACGUCCUCAACCUCCAAUGCAUCCCACCACAUGAUGAUGCCUGAAGAGCCUUGGUUUUUUG [U14G G36C] | -3.92 |
| GACCAAUCUGCCCGCAGAGCUCGAGAACAUCUUCGGAUACAGAGGAGGCAGGCUUCGGUGGCGCGAUAGCGCCAACGUCCUCAAUCUCCAAUGCAUCCCACCACAUGAUGAUGCCUAAAGAGCCUUGGUUUUUUG [U14G G39A C85U G117A] | -3.84 |
| GACCAAUCUGCCCGCAGAGCUCGAGAACAUCUUCGGAUGCAGAGGAGGCAGGCUUCGGUGGCGCGAUAGCGCCAACGUGCUCAACCUCCAAUGCAUCCCACCACAUGAUGAUGCCUGAAGAGCCUUGGUUUUUUG [U14G C79G] | -3.52 |
| GACCAAUCUGCCCGCAGAGCUCGAGAACAUCUUCGGAUGCAGAGGAGGCAGGCUUCGGUGGCGCGAUACCGCCAACGUCCUCAACCUCCAAUGCAUCCCACCACAUGAUGAUGCCUGAAGAGCCUUGGUUUUUUG [U14G G69C] | -3.2 |
| GACCAAUCUGCCCGCAGAGCUCGAGAACAUCUUCGGAUGCAGAGGAGGCAGGCUUCGGUGGCGCGAUAGCGCCAACGUCCUCAACCUCCAAUGCAUCCCACCACAUGAUAAUGCCUGAAGAGCCUUGGUAUUUUG [U14G G110A U130A] | -3.04 |
| GACCAAUCUGCCCGCAGAGCUCGAGAACAUCUUCGGAUGCAGAGGAGGCAGGCUUCGGUGGCGCGAUAACGCCAACGUCCUCAACCUCCCAUGCAUCCCACCACAUGAUGAAGCCUGAAGAGCCUUGAUUUUUUG [U14G G69A A90C U112A G128A] | -6.5 |
| GACCAAUCUGCCCGCAGAGCUCGAGAACAUCUUCGGAUGCAGAGGAGUCAGGCUUCGGUUGCGCGAUAGCGCCAACGUCCUCAACCUCCAAUGCAUCCCACCACAUGAUGAUGCCUGAAGAGCCUUGGUUUUUUG [U14G G48U G60U] | -2.56 |
| GACCAAUCUGCCCGCAGAGCUCGAGAACAUCUUCGGAUGCAGAGGAGGCAGGCUUCGGUGGCGCGAUAGGGCCAACGUCCUCAACCUCCAAUGCAUCCCACCACAUGAUGAUGCCGGAAGAGCCAUGGUUUUUUG [U14G C70G U116G U125A] | -5.32 |
| GACCAAUCUGCCCGCAGAGCUCGAGAACAUCUUCGGAUGCAGAGGAGGCAGGCUUCGGUGGCGCGAUAGCGCCAACGUCUUCAACCUCCAAUGCAUCCCACUACAUGAUGAUGCCUGAAGAGGCUUGGUUUUUUG [U14G C80U C102U C123G] | -1.69 |
| GACCAAUCUGCCCGCAGAGCUCGAGAACAUCUUCGGAUGCAGAGGAGGCAAGCUUCGGUGGCGCGAUAGCGCCAACGUCCUCAACCUCCAAUGCAUCCCACCACAUGAUGAUACCUGAAAGGCCUUGGUUUUUUG [U14G G51A G113A G120A A121G] | -2.87 |
| GACCAAUCUGCCCGCAGAGCUCGAGAACAUCUUCGGAUGCAGAGGAGGCAGGCUUCGGUGGCGCGAUAGCGCCAACGUCCUCAACCUCCAAUGCAUCCCACCACAUGAUGAUGCCUGAAUAGCCUUGGUUUUUUG [U14G G120U] | -1.14 |
